According to the domain aggregation screens of Martell et al. (2025):

Assay: soluble fraction after stress (log2 fold change); higher = more stays soluble; pooled small domains, quantitative proteomics
Conditions: stress: 75 degC
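Further: 20 min heating vs room temperature control held 20 min.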

Sequence	soluble fraction (log2)
HMGQPGNWTSYVFKNSDTEPAKPTSSGPIPSGWNDAPTGVGIWWMSKATIDASTGKAGSWSTPIRVTGED	-0.0861
HMGQSKNERMLELVELLNKASRSYYQDAQEIMSNYEYDRLYDELQNLEKELGITLSNSPTVN	-0.122
HMGQVSDETGLARVVDALLAAHPDEVAKYRAGKTSLLGWFMGQVMKETRGQANPDLARALVLERLE	-0.342
HMGQYSTTLDKIENSLFGFTYSNEAENTRINRIENKVYGKTSTSQTSTRIAKLKKDLSVDEMG	0.111
HMGREVVVPNLAGIEKEVALDLLKKNRLGGMITGTRFSSDFPAGQVIQQMPEAGSRVKVGKQVKLVLSEG	0.207
HMGRGSEDEQMRGLAVILAEQKQIMQTLGVENEVVKPEQYINTLKRMAELNGFKDTDQFFSIPQ	0.26
HMGRHSPLSIEQKEQLKTEIVALQQQRGGGRVTAVNIAELIQQKFNVVYNPNSLYKLLKQIGMSWV	-1.94
HMGRKEIIVPNLLGKYAIEAGTILKNAGLLEGQAREENSDTYPAGQIMDQFPKANTPANENDKVDYVVSI	≥ 1.04
HMGRLEVDLVVPYDKYEAMNVIRAEGRILKEDHQGDGAHLKIQINETALWKLKRMLGEGYGQ	-0.13
HMGRLPMNIVRAIVEHLDRHASYSEINRATGASKGFISKVAAAVEAASLTPEKFLLLNDEDIQNRITPGR	-0.739
HMGRPTLEQLLDRAQAMGVPRERYAAYADRRWGRGWRVNPHGRGRAWDELDRYRNDPAGYLDKIEVELNQL	-0.341
HMGRQVTVPNVTGMLVEEARAAISEAELWVDSPRAVQGEVTRQEPARGERLSPGQEVRIYTES	0.204
HMGRRSKAMLSSALDAVPGLGEMRRKALISQFGSLKKLRGATPEEIAAVPGIGPKLAAAVHEAVSG	-0.0903
HMGRSTQVPGVEKMTYSQAVQLLHDHGFRVDIRDSLYRDDIKPGHVIEQFPKAKSIVKPGRKIFLYINAV	-1.43
HMGRTGTVVVSPSLNVRTGPWGEIIGSLYNGNKVEIIGSSGDWYQISFGGKTAYVHSDYVVDGG	-1.26
HMGSDAFDISKLNLVGKTKESAESLLKENGFSVDTKEEASDTAAKGTVISYSPTKPKNGERVTLTVSSGK	0.385
HMGSDQEAAMARQDRLSTLVDYVVERGSVHVDDIVADLGVSPATVRRDLDALAAQQLIIRTRGGATANHT	0.034
HMGSGKGAAHTILGISADASDDEIKAAWRKLVQENHPDKLVSQGLPDEFVQAATDRLRLINTAYQSMLNRP	-0.0948
HMGSGLAAAEKIRKAHPEIKIVVATSLIDTQVLARAKAVGADSLWYKDGDEGTLMQVVRRTMAGDHIFP	-0.038
HMGSIGAMLSSPELYGKLATNPATRGFLSQPDFIAMLTDVQKNPDKFGSYMSDPRMMQVLSVALG	-0.231
HMGSIRDIIVQYLSKFDDPQPAAKIVEYVQQYRDTTESSIRSSMGSGDQFVQFSGGLYGLKDKTYAAWYSI	-0.916
HMGSLKISNPVKDTLWIQGVDGLKSIEIYSSTGQLVKTILGNQGDVSSLPKGVYFLKINTPSESLTAKIIK	-1.28
HMGSLPPPKDGTTIYVVKPGDSLWRISGKFFGNPLFWPRLWEINPNIDNPNKIYPGDVISLKP	0.24
HMGSLVKLQSAAELHQAGRSAEAVPILLEVLATNPRLVDGWEILANALEKLGRLDEALAALKKTVALSPPG	-1.55
HMGSNENTIREYFDSLIASASKREIMDANPTMSQRTVERILQKLQAEGYVEKIGAARSTRYRRA	-0.0404
HMGSQLYTLEVEADEKISLIENNPLLIQKIYLKDNNLFSYKIASSSKTEIASIEKELEKNPSIKRLETA	-0.086

Sequence	soluble fraction (log2)
HMGSQQIEEGMRRLVASGALRPGASVPSVRDLARDLQVNPATVVRAYQRLVDAGLLVVRRGEGTFVAE	-1.77
HMGSSLLSPKEREVLQLLAGNLSNKQIALAMGVSDETIKWHLRNLFGKLNAGGRKHLIDRARMLGLLAAA	-1.61
HMGSVHDAATDRIREMILGGQFEPGERLRQDDLATSLGVSTMPVREALRQLQAEGLVVFYPRKGAVVAR	0.168
HMGTAEDYLLPRRAEILSIIRDHEFANFDLIRRRFLAVNERTLRYDLKKLSDLGLIKKLGKTRGVYYRAAK	-1.84
HMGTAVKAPMPGTILKVNVTAGQSVKAGDIMFILEAMKMENEIVAPSDGTVSQVVAAKGSSVATDDVLAYL	-0.586
HMGTDGLKDIVLEILKEHPNQLAELIDGKQKVLGFLVGQVMKKTNGAANPKEVNEIIQGEIKK	0.179
HMGTELSYSEFLNKVEAGEVTNVTIRGPEITFQTGNSSYTTYAPDDPKLIEHLTAKGVAIKAGP	0.608
HMGTGELLVHVIGAVHSPGVVRLPTGARVVDAIDAAGGAREDAQTEQLNLARLVDDGEQVRVPVVGESVD	0.081
HMGTGIKQVNVVSVIGQDEETAKTTLTNLGLKVNVTYATSTSDNGKVTKQSIDAGKTVDEGTSVTITVNKV	≥ 1.04
HMGTHSAEQVRAAIRAIVAAEDAANPLSDARITELLAMRGIAAARRTVMKYREQLGIPSSAKRRR	-1.94
HMGTHVVQEGEYLDLIIEKTIPGSPIRKDLLRKAFVKLNPSAFGGRGNPNYIFARKKLKVPSVEDLKAVIF	0.127
HMGTIEEYSKYLINQYFDSLKKPMDAMTTSEKIEIVKSLDKKGIFNLKGSVGELAKRFNTSEKTIYRYLSS	-0.202
HMGTKRWELPRRVQQMATQHGKSISTAAAEELVSRSGENTRMLDNDLVKLAQMVEAPQIELADVERWIVR	0.207
HMGTLPSLAPSGEKTVRLPNLAGWSLRETMEILQKGGLQLLPIGSGISFKQSPPPGTTLNEGDAVTVWF	0.00884
HMGTNTTGWIKIADDWKYIDSNGEYTVNDWRQSADGGWYYLGYNGNMLKNQTTPDGYYVDAEGLWDGMSPA	-0.54
HMGTPEQVVVSSVLKETNEIVLKWPADGFMAKYKMDNLNLNFEPVHGQGVMGYFIGSRLIKLELV	-1.43
HMGTPSAEELAFSAQKGNAVMRIMEIREKYIENGGQISDEERNEIERLIAIYYPKASIFDYLPMMG	-0.367
HMGTSFEDIDRAVKSVRKPETDEAEKLHAGKTFKDIAETELFQKLTESFAGISDRVNEVIDLYTARAAE	0.188
HMGTSSAEIAAELRAQIFAGELRPGEMLPSAREITGTWNVAIATASRVHALLRSEGLATPVPGVGTVVAT	0.223
HMGTTAWISTKTANGSVNIRTGPGTGYGVIGWALNGDKLEVLSRGTSWHYVKLVKNGKIGYVSASYVSFTQ	-3.41
HMGTTKGVVDVTVPNGRASQHVKLVVIDDDGGRVVYDGTNAPGDRIVKSVSGSGNVRVQIYLNNALVQEQS	-0.491
HMGTTMLEVPNFVGEVFKEIDPEKYPNLRLVDSDYTYSNEYEAGKVISQDPVARTQVAEGSTVKLVIS	0.319
HMGTVISVDKARSIALAKVPGASANDIRIHLDRDDGRQIYEGEIYYNRMEYEFEIDASTGTIIEWSAEHW	-2.33
HMGTVQSVDRALLLLSEIGREPGGLVDLSTRVRLATSTTGRILATLEHAGAVVRGDDGIYHIGPLVHGMVS	-2.04
HMGTYSKQDLLQLIGRYPDGIGKREINLAFSKGTKIRNLLNIELNELLNERLITLSQGGLYIKP	-1.92
HMGVAFAPVEKIKHTKTGNELYAVKLAGRVEAEVFGQLRQKAKEYDGYYSKFSRAFLFSTPEDAEAFRAE	-0.294

Sequence	soluble fraction (log2)
HMGVDIAEHDGQPAVSIRKGAAESVAQWVKDQGGTFPQEVEMTVQNVARAGGTPLVVARGRDVLGVIYLKD	-0.0119
HMGVDKLTPREREVLALMAQGASNREIEGKLVLTAGAVSKHVANVFMKLGFSPEDENRRVKAVLAWLRTK	-2.86
HMGVGIEALAVEVDRIRQVLTGGGALSDIQLFSQLKALGEVKTALSSMTDPRARELEKRVAQLLEASLRT	-0.708
HMGVKHKHKGAGELLAALRTMFPNSSVSTLRKMLTQGRVVLNGEVVHRAKHELTDGDTIEVLERQRAER	0.0384
HMGVKIELNENEQAIFAAMQKQVEAVLPDLRAQFADMSNKAWDNSVKTLTKNNLLKVSKEAEILFIRL	-0.939
HMGVKTDKYYYQMATETRVNKHYGLSNQYIATLISEYPRSPLIPNASILSKKNNADLALIDQSINQR	-0.515
HMGVLSPRQSQILALVAQGLGNREIAERLHIAPTTARDHVQAIMRRLNVNSRAAAAVMGVKLGLI	-1.92
HMGVNEGVNKLFKTIQETPGKRMPYYALATDVPEKTIERWLKQLREEGKIEFKGSAKTGGYFVIDK	-0.000624
HMGVRDIRIFERNNSFFVNAEIRGEAQLSVPITRTDYQLFKENKIDALSLVEKYYAEELNASNEMK	0.234
HMGVSLNELAYRRFKQALVTLSYKPGEYLNTAQVMNDLDMGRTPINQAIHRLANEGLLQVIPRKGVMVS	-2.24
HMGVTDLFAVLGFPRSPWLDAEELKQRHHALMADEASANSSPTILNEARRTLQNPALRIRHFLALEFPDH	-0.425
HMGVYDLIYLGYGINVEKEELVDQNISIIRRYANIFDPNGDIKGSTNPTYASNTAVLFNEAKFIIDGYD	-3.7
HMGWQPDPLTTRERLVAELATQASNAQIAEQLHLSVRTVEGHLAHVYTKLGITTRRELPAALAGAR	-1.55
HMGWTTPAGIAVGMDKSVLQDAYGKEDDTFQDKGILYYQYFVHPSRMSGLSFGIKNDKIVSITAYMD	-2.02
HMGYDDLEPFDANGRLRWSDQELVLAFGRHRGATLRTLELNDPSYLRWLLSGNGPLEQQDIQRLEQILES	-1.55
HMGYDLLFQQALGFHEQGRLNEAENIYRQILETAPNNPDILNLLGLIAQQKGLHAQAVDYFYQAIRL	-1.89
HMGYDVAEVKFRLIKLLRDSKIGISGVEISERLGINRVTMTKYLNIFSAEGVIGEKNIGNVNLWFVYEGIE	-1.62
HMGYQLSLEAQSQLKALGLTSEYITRILDEADNRQPIPGTSRTVYSLNGYQVEFSHSDQQVIRIARG	-1.14
HMGYSDEIGEFIKKLRTENHLTQKEFADKYGVTYQAVSKWENGKNLPDMSLIKQMSEDFNIGIDELLDGEK	-0.00865
HMGYTLDVAHGVTEDMNFSEAFATAREEVGPGGIFYWHGKPYGTYYENEWNAMDEEDKAEYWDAVGRTTA	0.0888
HMHANSDVEQLMQMGIQRLNFQRYSDALLIFNQIIENFPDYAEAWNKRATLHYLLGNLDKSIADIEQTLE	-2.45
HMHAPIAELKKVFKEEFADQEVTVRQLAGSVLLSGNVKTAELRENLESVAKQFFPRVINNLKLI	-0.444
HMHDAKAEIIRLSALLTEYQRSYYIDGHSQVSDLEYDRLFDRLVALETSHPELREADSPTQRV	-0.917
HMHDAKTQLQEEAARRGLPAPVYTRIGQEGPDHAPRFRVRADVGPHQAEAVAGSLKLAQAEAARAILRQMP	0.132
